Laboratory results reported in paper PMC10786891, “Massively parallel profiling of RNA-targeting CRISPR-Cas13d”.
Where a chain is given by its changes, count along the chain named. Names and notes keep the numbering of the source.

T1: EsCas13d, nuclease-dead (Eubacterium siraeum, UniProt B0MS50, R295A;H300A;R849A;H854A)
T1 sequence: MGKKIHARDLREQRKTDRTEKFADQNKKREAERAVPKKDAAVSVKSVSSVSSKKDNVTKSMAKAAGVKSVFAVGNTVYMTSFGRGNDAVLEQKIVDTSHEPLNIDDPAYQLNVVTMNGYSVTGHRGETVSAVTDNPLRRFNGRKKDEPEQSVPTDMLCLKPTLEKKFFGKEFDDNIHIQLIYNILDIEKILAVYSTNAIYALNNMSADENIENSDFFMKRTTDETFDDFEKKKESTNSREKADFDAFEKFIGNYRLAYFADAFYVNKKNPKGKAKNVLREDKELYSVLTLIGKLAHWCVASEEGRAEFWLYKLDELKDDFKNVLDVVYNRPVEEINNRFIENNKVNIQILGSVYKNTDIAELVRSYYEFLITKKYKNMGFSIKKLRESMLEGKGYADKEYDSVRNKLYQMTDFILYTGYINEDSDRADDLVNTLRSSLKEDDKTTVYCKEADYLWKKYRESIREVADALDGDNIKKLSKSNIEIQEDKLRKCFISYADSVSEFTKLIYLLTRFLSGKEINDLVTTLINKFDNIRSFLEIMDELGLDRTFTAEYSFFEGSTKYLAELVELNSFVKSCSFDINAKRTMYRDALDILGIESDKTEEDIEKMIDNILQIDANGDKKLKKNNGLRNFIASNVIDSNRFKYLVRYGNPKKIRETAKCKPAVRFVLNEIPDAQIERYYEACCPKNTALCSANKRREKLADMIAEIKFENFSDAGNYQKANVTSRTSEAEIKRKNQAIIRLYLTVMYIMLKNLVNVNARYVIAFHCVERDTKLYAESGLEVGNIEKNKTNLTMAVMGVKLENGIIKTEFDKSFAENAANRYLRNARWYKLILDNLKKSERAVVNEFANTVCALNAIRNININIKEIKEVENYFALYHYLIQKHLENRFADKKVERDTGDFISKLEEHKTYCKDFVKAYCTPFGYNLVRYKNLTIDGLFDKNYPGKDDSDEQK

B1: target 1 U10C,G17U (mixed)
RNA 1: CACCCGUGCAAAAAUGCAGGGGUCUAAAACUGAGCGGAUAACCUCUCUAUGG
RNA 2: GGGAAUGGAUCCACAUCUACGAAUUCGUACCAUAUAGAGGUCAUCCGCUCACCGAGAUCGGAAGAGCACACGU
B2: target 1 insU 3' of 4,insA 3' of 4 (mixed)
RNA 1: B1 RNA 1
RNA 2: GGGAAUGGAUCCACAUCUACGAAUUCGUACCAUAGAGAGGUUAUCCGCUAUCACCGAGAUCGGAAGAGCACACGU
B3: target 1 insG 3' of 11,insU 3' of 7 (mixed)
RNA 1: B1 RNA 1
RNA 2: B2 RNA 2 with U42G, A43U, U44A, C45U, G47U, U49G, A50C
B4: target 1 insA 3' of 7,insG 3' of 6 (mixed)
RNA 1: B1 RNA 1
RNA 2: B2 RNA 2 with C46A, G47C, C48G, U49G, A50C
B5: target 1 G12C,C22A (mixed)
RNA 1: B1 RNA 1
RNA 2: B1 RNA 2 with C30A, U35G, G40C, C42U
B6: target 1 insC 3' of 15,insC 3' of 5 (mixed)
RNA 1: B1 RNA 1
RNA 2: GGGAAUGGAUCCACAUCUACGAAUUCGUACCAUAGAGCAGGUUAUCCGCCUCACCGAGAUCGGAAGAGCACACGU
B7: target 1 insG 3' of 14,insA 3' of 8 (mixed)
RNA 1: B1 RNA 1
RNA 2: B6 RNA 2 with C38A, A39G, C46A, G48C, C49G
B8: target 1 insC 3' of 12,insU 3' of 5 (mixed)
RNA 1: B1 RNA 1
RNA 2: B6 RNA 2 with C38A, A39G, G41C, C49U
B9: target 1 G5C,U11A (mixed)
RNA 1: B1 RNA 1
RNA 2: B1 RNA 2 with U35G, U41A, C42U, G47C
B10: target 1 C2U,A20U (mixed)
RNA 1: B1 RNA 1
RNA 2: B1 RNA 2 with A32U, U35G, C42U, C50U
B11: target 1 insC 3' of 1,insC 3' of 1 (mixed)
RNA 1: B1 RNA 1
RNA 2: B2 RNA 2 with A50C, U51A, A53C
B12: target 1 C6G,G17U (mixed)
RNA 1: B1 RNA 1
RNA 2: B1 RNA 2 with C42U, C46G
B13: target 1 C6G,A18G (mixed)
RNA 1: B1 RNA 1
RNA 2: B1 RNA 2 with A34G, U35G, C42U, C46G
B14: target 1 insC 3' of 3,insU 3' of 1 (mixed)
RNA 1: B1 RNA 1
RNA 2: B2 RNA 2 with A50C, U51C, C52A, A53U
B15: target 1 insC 3' of 19,insA 3' of 4 (mixed)
RNA 1: B1 RNA 1
RNA 2: B6 RNA 2 with A34C, G35A, A36G, G37A, C38G, C50A
B16: target 1 insU 3' of 14,insA 3' of 10 (mixed)
RNA 1: B1 RNA 1
RNA 2: B6 RNA 2 with C38A, A39U, U45A, C46U, G48C, C49G
B17: target 1 insC 3' of 19,insG 3' of 16 (mixed)
RNA 1: B1 RNA 1
RNA 2: GGGAAUGGAUCCACAUCUACGAAUUCGUACCAUCAGAGGAGGUUAUCCGCUCACCGAGAUCGGAAGAGCACACGU
B18: target 1 insG 3' of 9 (mixed)
RNA 1: B1 RNA 1
RNA 2: GGGAAUGGAUCCACAUCUACGAAUUCGUACCAUAGAGAGGUUAGUCCGCUCACCGAGAUCGGAAGAGCACACGU
B19: target 1 insC 3' of 3,insG 3' of 1 (mixed)
RNA 1: B1 RNA 1
RNA 2: B2 RNA 2 with A50C, U51C, C52A, A53G
B20: target 1 insA 3' of 15,insA 3' of 3 (mixed)
RNA 1: B1 RNA 1
RNA 2: B6 RNA 2 with C38A, C50U, U51A
B21: target 1 insA 3' of 6,insA 3' of 3 (mixed)
RNA 1: B1 RNA 1
RNA 2: B2 RNA 2 with G47A, C48G, U49C, A50U, U51A
B22: target 1 insA 3' of 22,insU 3' of 21 (mixed)
RNA 1: B1 RNA 1
RNA 2: B17 RNA 2 with C31A, A32C, C34A, A35U, G36A, A37G, G38A
B23: target 1 G17A,C22U (mixed)
RNA 1: B1 RNA 1
RNA 2: B1 RNA 2 with C30U, U35A, C42U
B24: target 1 insC 3' of 3,insC 3' of 1 (mixed)
RNA 1: B1 RNA 1
RNA 2: B2 RNA 2 with A50C, U51C, C52A, A53C
B25: target 1 insG 3' of 8,insC 3' of 1 (mixed)
RNA 1: B1 RNA 1
RNA 2: B2 RNA 2 with C45G, G47C, C48G, U49C, A50U, U51C, C52A, A53C
B26: target 1 insU 3' of 21,insG 3' of 3 (mixed)
RNA 1: B1 RNA 1
RNA 2: B6 RNA 2 with A32U, U33A, A34U, G35A, A36G, G37A, C38G, C50U, U51G
B27: target 1 U8G,G15C (mixed)
RNA 1: B1 RNA 1
RNA 2: B1 RNA 2 with U35G, G37C, C42U, U44G
B28: target 1 insC 3' of 17,insG 3' of 7 (mixed)
RNA 1: B1 RNA 1
RNA 2: B6 RNA 2 with A36C, G37A, C38G, C47G, G48C, C49G
B29: target 1 insG 3' of 19,insA 3' of 4 (mixed)
RNA 1: B1 RNA 1
RNA 2: B6 RNA 2 with A34G, G35A, A36G, G37A, C38G, C50A
B30: target 1 insU 3' of 22,insG 3' of 7 (mixed)
RNA 1: B1 RNA 1
RNA 2: GGGAAUGGAUCCACAUCUACGAAUUCGUACUCAUAGAGAGGUUAUCGCGCUCACCGAGAUCGGAAGAGCACACGU
B31: target 1 insU 3' of 14,insU 3' of 1 (mixed)
RNA 1: B1 RNA 1
RNA 2: B6 RNA 2 with C38A, A39U, C50U, U51C, C52A, A53U
B32: target 1 insU 3' of 9,insC 3' of 1 (mixed)
RNA 1: B1 RNA 1
RNA 2: B2 RNA 2 with C45U, G47C, C48G, U49C, A50U, U51C, C52A, A53C
B33: target 1 insC 3' of 22,insG 3' of 21 (mixed)
RNA 1: B1 RNA 1
RNA 2: B17 RNA 2 with A32C, U33G, C34A, A35U, G36A, A37G, G38A

Target: T1, EsCas13d, nuclease-dead
Assay: crRNA (strand 1, pre-loaded); Mg2+; 40 mM Tris-HCl pH 7.5, 150 mM NaCl, 6 mM MgCl2, 1 mM DTT, 0.1% Tween-20, 0.2 mg/ml BSA; 25 C; 10 min per concentration, then washed
Conditions: tags: His6-TwinStrep-SUMO cleaved; N-terminal SNAP kept (SNAP-Surface 488); label: 3' end held by stalled T7 RNA polymerase

Binder | Kd
B1 | 0.055 ± 0.004 µM
B2 | 0.0091 ± 0.0005 µM
B3 | 0.0249 ± 0.0008 µM
B4 | 0.00809 ± 0.00034 µM
B5 | 0.025 ± 0.0011 µM
B6 | 0.0098 ± 0.0004 µM
B7 | 0.0106 ± 0.0004 µM
B8 | 0.0116 ± 0.0015 µM
B9 | 0.046 ± 0.01 µM
B10 | 0.034 ± 0.004 µM
B11 | 0.0112 ± 0.0005 µM
B12 | 0.0314 ± 0.0027 µM
B13 | 0.048 ± 0.007 µM
B14 | 0.0108 ± 0.0008 µM
B15 | 0.025 ± 0.006 µM
B16 | 0.043 ± 0.005 µM
B17 | 0.061 ± 0.011 µM

Binder | Kd
B18 | 0.0172 ± 0.001 µM
B19 | 0.0111 ± 0.0008 µM
B20 | 0.00748 ± 0.00034 µM
B21 | 0.0215 ± 0.0022 µM
B22 | 0.00609 ± 0.00028 µM
B23 | 0.059 ± 0.011 µM
B24 | 0.0158 ± 0.0011 µM
B25 | 0.0116 ± 0.0005 µM
B26 | 0.0168 ± 0.0007 µM
B27 | 0.09 ± 0.019 µM
B28 | 0.042 ± 0.007 µM
B29 | 0.0348 ± 0.0031 µM
B30 | 0.0228 ± 0.0016 µM
B31 | 0.048 ± 0.008 µM
B32 | 0.0148 ± 0.0007 µM
B33 | 0.0273 ± 0.0031 µM
